Reference: patent US20190248902A1 (published 2019)

T1: human ASGR-1 (human, UniProt P07306 1-291)
T1 construct: Stably expressed on CHO-S cells (CHO-S:huASGR-1); The method text says human or mouse ASGR-1 cells were used; also called huASGR-1; hASGR-1
T1 sequence: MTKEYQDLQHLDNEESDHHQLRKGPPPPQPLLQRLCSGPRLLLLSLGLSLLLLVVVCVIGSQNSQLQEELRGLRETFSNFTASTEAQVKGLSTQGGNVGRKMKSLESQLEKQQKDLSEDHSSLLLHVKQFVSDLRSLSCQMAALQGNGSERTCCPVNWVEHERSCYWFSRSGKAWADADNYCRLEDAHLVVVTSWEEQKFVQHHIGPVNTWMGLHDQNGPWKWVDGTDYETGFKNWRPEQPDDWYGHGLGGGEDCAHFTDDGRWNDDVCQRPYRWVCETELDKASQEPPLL


Legend:
human ASGR-1 [1] = target: T1, human ASGR-1; experiment: FACS ligand blocking on CHO-S ASGR-1 cells; competitor biotinylated asialofetuin
Description: (§1) All ASGR-1 antibodies that bound either human or mouse ASGR-1 stable CHO—S cells were then tested for ligand blocking using both a protein ligand and a synthetic sugar ligand. The method in brief is as follows: first, 20 ul of either CHO-Shuman or mouse ASGR-1 cells were added to wells of a 384 well plate (30 k cells/well) followed by spin and discarding the supernatant. Second, 10 ul of the antibodies (either purified from hybridoma supernatants or made recombinantly) were added in duplicate to the cells in a dilution series (200 nM top concentration, 1:2 serial dilution, 11 point curve) and were incubated for 30 min at 4 C. […] After 30 min incubation at 4C, the plate was spun and washed twice with FACS buffer+1 mM CaCl2 followed by the detection streptavidin-AF647 at 1:1000 dilution. After 30 min at 4C, the cells were spun and washed once and then 60 ul PI added at 1:1000 dilution and the plates delivered to a core flow cytometry facility. The plates were read and processed similarly to the cell binding method except the signal now represents an inhibition curve and typically decreases a function of increasing antibody concentration. IC50 nM potency and % Inhibition were reported. […] Differences in the ability of antibodies to block these two ligands could occur as a result of differences in, for example, avidity stemming from differences in the number and/or orientation of the ASGR binding terminal sugar residues of each ligand, steric hindrance between antibody and each ligand, and/or changes in the conformation of ASGR induced by antibody binding that selectively alters the binding of each ligand.

human ASGR-1 [2] = target: T1, human ASGR-1; experiment: FACS ligand blocking on CHO-S ASGR-1 cells; labelled ligand biotin-GalNAc-PAA (synthetic sugar)
Description: as §1

| Binder | % Inhibition (human ASGR-1 [1]) [%] | IC50 (human ASGR-1 [1]) [nM] | % Inhibition (human ASGR-1 [2]) [%] | IC50 (human ASGR-1 [2]) [nM] |
| --- | --- | --- | --- | --- |
| 193E7 (antibody, V domains shown) VH: QVQLQQWGAGLLKPSETLSLTCAVYGGSFSGYFWTWIRQPPGKGLEWIGEINHSGSTNYNPSLKSRVTISVDTSKNQFSLKLSSVTAADTAVYYCARDYGADYWGQGTLVAVSA VL: DIQMTQSPSSLSASVGDRVTITCRASQGIRNDLGWYQQKPGKAPKRLIYSASSLQRGVPSRFSGSGSGTEFTLTISSLQPEDFATYYCLQHKRYPLTFGGGTKVEIK | 99 | 30 | 60 | 33 |
| 194C1 (antibody, V domains shown) VH: QVQLVESGGGVVQPGRSLRLSCAASGFTFSSYGMHWVRQAPGKGLEWVAVIWYDGSNEHYADSVKGRFTISRDNSKNTLYLQMNSLRAEDTAVYYCARNRGVGYYGLDVWGQGTTVTVSS VL: DIQMTQSPSSLSASVGDRVTITCRASQGISNYLAWFQQKPGKAPKSLIYAASSLQSGVPSKFSGSGSGTDFTLTISSLQPEDFATYYCLHYLTYPLTFGGGTKVEIK | 99 | 34 | 89 | 72 |
| 197G3 (antibody, V domains shown) VH: QVQLVESGGGVVQPGRSLRLSCVASGFTFSSHGMHWVRQAPGKGLEWVAVIWYDGSNKNYADSVKGRFTISRDNSKNTLYLQMNSLRAEDTAVYYCARDPSVGYDGMDVWGQGTTVTVSS VL: DIQMTQSPSSLSASVGDRVTITCRASQGIGNHLAWFQQKPGKAPKSLIYAASSLQSGVPSKFSGSRSGTDFSLTISSLQPEDFATYYCQQYSNYPVTFGPGTKVDIK | 90 | 29 | 74 | 15 |
| 4B1 (antibody, V domains shown) VH: QVQLQESGPGLVKPSETLSLTCSVSGDSISSYSWSWIRQPAGKGLEWIGRIYTSGSTNYIPSLKSRITMSVDTSKKQFSLKLSSVTAADTAVYYCARDLKSSGCLFFDYWGQGTLVTVSS VL: DIQMTQSPSSLSASVGDRVTITCRASHTIRTYLNWYQQKPGKAPKLLIYAASSLQSGVPSRINGSGSGTDFTLTITNLQPEDFATYYCQQSYNISFTFGPGTKVDIK | 75 | 64 | 36 | 42 |
| 194C10 (antibody, V domains shown) VH: QVQLQQWGAGLLKPSETLSLTCAVSGGSFRYYYWSWIRQPPGKGLEWFGEINHSGSTNYNPSLKSRVTISIDTSKNQFSLKLRSVTAADTAVYYCARDYGAFDIWGQGTMVTVSS VL: EIVLTQSPGTLSLSPGERATLSCRASPSVNSGYLAWYQQKPGQTPRLLIFGASSRATGIPDRFSASGSGADFTLTISRLEPEDFAVYFCQQYESSPWTFGQGTKVEIK | 99 | – | 99 | – |
| 194A4 (antibody, V domains shown) VH: QVQLVQSGTEVKKPGASLKVSCKASGYTFTVYYLNWVRQAPGQGLEWMGWINPNSGGTNYAQKFQGRVTMTRDTSISTAYMELSRLRSDDTAVYYCARGYDILTGWGQGTLVTVSS VL: EIVLTQSPGTLSLSPGERATLSCRASRGVSNIYLAWYQQKPGQAPRLLIYGASNRATGIPDRFSGSGSGTDFTLTISRLEPEDFAVYYCQHNDYSMFTFGPGTKVDIK | 99 | 57 | 60 | 48 |

Further lines, results first:

| % Inhibition (human ASGR-1 [1]) [%] | IC50 (human ASGR-1 [1]) [nM] | % Inhibition (human ASGR-1 [2]) [%] | IC50 (human ASGR-1 [2]) [nM] | Binder |
| --- | --- | --- | --- | --- |
| 98 | 16 | 96 | 32 | 202A3 (antibody, V domains shown) VH: QVQLEQSGAEVKKPGASVKVSCKASGYTFTSYDINWVRQATGQGLEWLGWMNPKRGNTGYAQKFQGRVTMTRNTSISTAHMELSSLRSEDTAVYYCARGRYSREDYYYYYDMDVWGQGTTVTVSS VL: DIQMSQSPSSLSASVGDRVTITCRASQGIRNDLGWYQQKPGKAPKRLICAASRLQSGVPSRFSGSGSGTEFTLTISSLQPEDFAIYYCLQHHDYPFTFGPGTKVDIK |
| 99 | 27 | 99 | 56 | 191G10 (antibody, V domains shown) VH: QVQLVESGGGVVQPGRSLRLSCAASGFTFSSYGMHWVRQAPGKGLEWVAVIWYDGSNKNYADSVKGRFTISRDNSKNTLYLQMNSLRAEDTAVYYCARDQGVGYDGLDVWGQGTTVTVSS VL: DIQMTQSPSSLSASVGDRVTITCRTSQGIGKYLAWFQQKPGKAPKSLLYKVSSLQSGVPSKFSGSGSGTDFTLTISSLQPEDFATYYCQQYMTYPLTFGGGTKVEIK |
| 99 | 26 | 81 | 5 | 198G3 (antibody, V domains shown) VH: QVQLVESGGGVVQPGRSLKLSCAASGFTFSTYGMHWVRQAPGKGLEWVAVIWYDGTNKNYADSVKGRFTISRDNSKNTLCLQMNSLRAEDTAVYYCARDQGVGYDGLDVWGQGTTVTVSS VL: DIQMAQSPSSLSASVGDRVTITCRTSQGIGKYLAWFQQKPGKAPKSLLYKASSLQGGVPSKFSGSGSGTDFTLTISSLQPEDFATYYCQQYMTYPLTFGGGTKVEIK |
| 99 | 22 | 99 | 55 | 198D2 (antibody, V domains shown) VH: QVQLVESGGGVVQPGRSLRLSCAASGFTFRSYGMHWVRQAPGKGLEWVAVIIYDGSYKYYADSVKGRFTISRDNSKNTLYLQMNSLRAEDTAVYYCARTYSGGMDVWGQGTTVTVSS VL: QSVLTQPPSVSAAPGQKVTISCSGSSSNIGSNYVSWYQQLPGTAPKVLIYDNNKRPSGIPDRFSGSKSGTSATLGITGLQTGDEADYYCGTWDSRLNVGVFGGGTKLTVL |
| 99 | 28 | 99 | 71 | 218G4 (antibody, V domains shown) VH: QVQLVESGGGVVQPGRSLRLSCAASGFTFSSYGLHWVRQAPGKGLEWVAVIWYDGSNKYYADSVKGRFTISRDNSKNTLYLQMNSLRVEDTAVYYCANWYYYYYGMDVWGQGTTVTVSS VL: QSVLTQPPSVSAAPGQKVTISCSGSSSNIGNNYVSWYQQLPGTAPKLLLYDSNKRPSGIPARFSGSKSGTSATLGITGLQTGDEADYYCGTWDSSLNTVVFGGGTKLTVL |
| 85 | 12 | 20 | 8.1 | 4H6 (antibody, V domains shown, tested as antibody purified from hybridoma supernatant or made recombinantly) VH: QVQLVQSGAEVKKPGASVKVSCKASGYTFTDYYLHWVRQAPGQGLEWMGWIHPNSGGTNYAQKFQGRVTMTRDTSISTAYMGLSSLRSDDTAVYYCARDGTSSFDYWGQGTLVTVSS VL: DIQMTQSPSSVSASVGDRVTITCRASQGISRWLAWYQQKPGKAPKLLIYGASSLQSGVPSRFSGSGSGTDFTLTISSLQPEDFAIYYCQQANSFPFTFGPGTKVDIK |
| 99 | 11 | 70 | 54 | 4A2 (antibody, V domains shown) VH: QVQLVQSGTEVKKPGASVKVSCKASGYTFTNYDINWVRQATGQGLEWMGWMHPNSGNTGYAQKFQGRVTLTRNTSISTAYMELSSLRSEDTAVYYCASSSGWYYFDYWGQGTLVTVSS VL: DIVMTQSPDSLAVSLGERATINCKSSQSILHSSNNNNYLAWFQQKPGQPPKLLLYWASTRESGVPDRFSGSGSGTDFTLTISSLQPEDVAVYYCQQYYNTPVTFGPGTKVGIK |
